According to US20220306695A1, “COMPSTATIN ANALOGUES AND THEIR MEDICAL USES” (priority 2019, published 2022):
Where two headings read alike, the source gives them in different places. Positions of bridges follow the written chain, without caps; N, C: chain ends. Non-standard residues stand in square brackets, D forms with d. β3hI = CC[C@H](C)[C@H](N)CC(=O)O; Nle = CCCC[C@H](N)C(=O)O; Nva = CCC[C@H](N)C(=O)O; Sar = CNCC(=O)O

What was measured:
Human C3 [1] = molecular target: T1, Human C3 (human, UniProt P01024 23-1663); assay: cell-based or functional assay
T1 sequence (P01024 23-1663 limits assumed): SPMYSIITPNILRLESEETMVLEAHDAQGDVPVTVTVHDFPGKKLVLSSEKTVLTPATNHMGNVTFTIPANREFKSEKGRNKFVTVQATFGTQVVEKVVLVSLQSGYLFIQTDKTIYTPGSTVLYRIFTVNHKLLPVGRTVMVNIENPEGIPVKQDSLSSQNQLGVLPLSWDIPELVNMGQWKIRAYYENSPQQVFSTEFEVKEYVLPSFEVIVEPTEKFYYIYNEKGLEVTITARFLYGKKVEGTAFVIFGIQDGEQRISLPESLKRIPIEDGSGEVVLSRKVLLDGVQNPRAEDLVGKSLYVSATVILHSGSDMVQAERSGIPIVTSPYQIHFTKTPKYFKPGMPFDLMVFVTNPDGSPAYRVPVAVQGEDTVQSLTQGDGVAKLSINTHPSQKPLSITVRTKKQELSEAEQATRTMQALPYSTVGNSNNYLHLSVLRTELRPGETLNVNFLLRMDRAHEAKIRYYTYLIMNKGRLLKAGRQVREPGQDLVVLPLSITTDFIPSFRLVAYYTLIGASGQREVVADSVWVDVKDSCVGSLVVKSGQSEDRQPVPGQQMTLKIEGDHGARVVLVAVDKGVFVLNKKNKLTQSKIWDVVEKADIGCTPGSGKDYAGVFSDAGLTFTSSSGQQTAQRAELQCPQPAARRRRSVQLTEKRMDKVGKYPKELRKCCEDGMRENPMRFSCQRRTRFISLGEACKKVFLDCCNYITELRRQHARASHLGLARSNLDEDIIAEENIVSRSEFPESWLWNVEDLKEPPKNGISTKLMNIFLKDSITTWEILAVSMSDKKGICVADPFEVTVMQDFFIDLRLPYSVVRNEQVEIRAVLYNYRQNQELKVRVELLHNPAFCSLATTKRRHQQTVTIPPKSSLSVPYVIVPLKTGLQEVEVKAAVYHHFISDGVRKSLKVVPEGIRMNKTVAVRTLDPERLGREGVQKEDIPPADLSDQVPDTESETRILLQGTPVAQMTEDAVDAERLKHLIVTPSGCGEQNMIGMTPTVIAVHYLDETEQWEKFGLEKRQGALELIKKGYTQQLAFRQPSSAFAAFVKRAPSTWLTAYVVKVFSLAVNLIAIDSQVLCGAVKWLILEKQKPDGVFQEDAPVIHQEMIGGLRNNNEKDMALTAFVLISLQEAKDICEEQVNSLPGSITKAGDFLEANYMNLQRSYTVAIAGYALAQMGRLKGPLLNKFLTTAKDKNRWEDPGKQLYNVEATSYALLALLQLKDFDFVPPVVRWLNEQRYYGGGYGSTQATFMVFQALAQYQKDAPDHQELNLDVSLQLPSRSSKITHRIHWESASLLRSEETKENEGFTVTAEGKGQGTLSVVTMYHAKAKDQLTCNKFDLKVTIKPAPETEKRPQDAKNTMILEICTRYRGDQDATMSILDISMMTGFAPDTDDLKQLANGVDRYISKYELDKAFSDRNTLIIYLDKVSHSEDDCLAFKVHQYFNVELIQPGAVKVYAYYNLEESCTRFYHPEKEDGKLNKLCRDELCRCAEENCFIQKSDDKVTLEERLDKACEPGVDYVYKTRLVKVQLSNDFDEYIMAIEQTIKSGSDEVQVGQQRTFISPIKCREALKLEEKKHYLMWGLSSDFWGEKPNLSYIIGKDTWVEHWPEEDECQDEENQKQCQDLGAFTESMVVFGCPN

Human C3 [2] = molecular target: T1, Human C3; assay: cell-based or functional assay; remark: listed apart in the source
Human C3 [3] = molecular target: T1, Human C3; assay: cell-based or functional assay; remark: listed apart in the source
Human C3 [4] = molecular target: T1, Human C3; assay: SPR, C3 immobilised
Outline: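 Human C3 amine-coupled to a CM5 chip at ~3000 RU; peptides injected multi-cycle at 5-8 concentrations for 60-120 s in Tris pH 7.4, 150 mM NaCl, 0.05% Tween20 at 25° C, dissociation up to 10 min.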

Human C3 [5] = molecular target: T1, Human C3; assay: SPR, C3 immobilised; remark: listed apart in the source
Description: Surface plasmon resonance (SPR) was used to characterize peptides with respect to their binding affinity (Kd) for C3. Human C3 (Complement tech cat #A1 13c) was immobilised on individual flow cells of CM5 sensor chips (GE Healthcare) using standard amine coupling to a density of approximately 3000 resonance units (RU) in a buffer consisting of 10 mM phosphate pH 7.4, 150 mM NaCl, 0.05% Tween20.
For interaction experiments a multi-cycle experiment approach was used and performed using either a Biacore™ T200 or Biacore™ X100 instrument (GE Healthcare) at 25° C. Peptides were injected in increasing concentration series (5-8 different concentrations) for 60-120 s at a flow rate of 30 μL/min in a buffer consisting of 10 mM Tris buffer at pH 7.4, with 150 mM NaCl and 0.05% Tween20. This was followed by a dissociation period for up to 10 min. The C3 surface was regenerated between runs by a 45 s injection of 3 M MgCl₂.
Sensorgrams were double-referenced (reference surface, blanks) prior to analysis of the kinetic profiles by globally fitting data to a 1:1 Langmuir binding model to obtain association and dissociation rates for calculation of the equilibrium dissociation constant Kd. Each peptide was tested at in at least 2 independent experiments.

B1: Ac-IC(1)XWQDWGEHRC(1)T-NH2 with Norleucine at position 3 (peptide)
peptide: Ac-IC[Nle]WQDWGEHRCT-NH2
modifications: disulfide 2-12
SMILES: CCCC[C@@H]1NC(=O)[C@@H](NC(=O)[C@@H](NC(C)=O)[C@@H](C)CC)CSSC[C@@H](C(=O)N[C@H](C(N)=O)[C@@H](C)O)NC(=O)[C@H](CCCNC(=N)N)NC(=O)[C@H](Cc2c[nH]cn2)NC(=O)[C@H](CCC(=O)O)NC(=O)CNC(=O)[C@H](Cc2c[nH]c3ccccc23)NC(=O)[C@H](CC(=O)O)NC(=O)[C@H](CCC(N)=O)NC(=O)[C@H](Cc2c[nH]c3ccccc23)NC1=O
Human C3 [1]
  IC50, CP hemolysis: 480 nM

B2: Ac-IC(1)XWQDWGEHRC(1)T-NH2 with Norvaline at position 3 (peptide)
peptide: Ac-IC[Nva]WQDWGEHRCT-NH2
modifications: disulfide 2-12
SMILES: CCC[C@@H]1NC(=O)[C@@H](NC(=O)[C@@H](NC(C)=O)[C@@H](C)CC)CSSC[C@@H](C(=O)N[C@H](C(N)=O)[C@@H](C)O)NC(=O)[C@H](CCCNC(=N)N)NC(=O)[C@H](Cc2c[nH]cn2)NC(=O)[C@H](CCC(=O)O)NC(=O)CNC(=O)[C@H](Cc2c[nH]c3ccccc23)NC(=O)[C@H](CC(=O)O)NC(=O)[C@H](CCC(N)=O)NC(=O)[C@H](Cc2c[nH]c3ccccc23)NC1=O
Human C3 [1]
  IC50, CP hemolysis: > 1000 nM

B3: Compound 19 (peptide)
peptide: Ac-ICIWQDWGAHSCT-NH2
modifications: disulfide 2-12
SMILES: CC[C@H](C)[C@H](NC(C)=O)C(=O)N[C@H]1CSSC[C@@H](C(=O)N[C@H](C(N)=O)[C@@H](C)O)NC(=O)[C@H](CO)NC(=O)[C@H](Cc2c[nH]cn2)NC(=O)[C@H](C)NC(=O)CNC(=O)[C@H](Cc2c[nH]c3ccccc23)NC(=O)[C@H](CC(=O)O)NC(=O)[C@H](CCC(N)=O)NC(=O)[C@H](Cc2c[nH]c3ccccc23)NC(=O)[C@H]([C@@H](C)CC)NC1=O
Human C3 [2]
  CP hemolysis IC50: 140 nM
Human C3 [3]
  IC50[nM], inhibition of hemolysis: < 250 nM

## Ac-IC[β3hI]WQDWGEHRCT-NH2 (disulfide 2-12) [Ac-IC(1)XWQDWGEHRC(1)T-NH2 with Beta-Homo-Isoleucine at position 3]
Human C3 [1]
  IC50, CP hemolysis: > 10000 nM

B4: Compound 28 (peptide)
peptide: Ac-EGSAICIWQDWGEHRC[Sar]E-NH2
modifications: disulfide 6-16
SMILES: CC[C@H](C)[C@H](NC(=O)[C@H](C)NC(=O)[C@H](CO)NC(=O)CNC(=O)[C@H](CCC(=O)O)NC(C)=O)C(=O)N[C@H]1CSSC[C@@H](C(=O)N(C)CC(=O)N[C@@H](CCC(=O)O)C(N)=O)NC(=O)[C@H](CCCNC(=N)N)NC(=O)[C@H](Cc2c[nH]cn2)NC(=O)[C@H](CCC(=O)O)NC(=O)CNC(=O)[C@H](Cc2c[nH]c3ccccc23)NC(=O)[C@H](CC(=O)O)NC(=O)[C@H](CCC(N)=O)NC(=O)[C@H](Cc2c[nH]c3ccccc23)NC(=O)[C@H]([C@@H](C)CC)NC1=O
Human C3 [2]
  CP hemolysis IC50: 88 nM
Human C3 [4]
  Kd: 44 nM
Human C3 [3]
  IC50[nM], inhibition of hemolysis: < 100 nM

B5: Compound 24 (peptide)
peptide: Ac-ICIWQDWGEHRCTEGE-NH2
modifications: disulfide 2-12
SMILES: CC[C@H](C)[C@H](NC(C)=O)C(=O)N[C@H]1CSSC[C@@H](C(=O)N[C@H](C(=O)N[C@@H](CCC(=O)O)C(=O)NCC(=O)N[C@@H](CCC(=O)O)C(N)=O)[C@@H](C)O)NC(=O)[C@H](CCCNC(=N)N)NC(=O)[C@H](Cc2c[nH]cn2)NC(=O)[C@H](CCC(=O)O)NC(=O)CNC(=O)[C@H](Cc2c[nH]c3ccccc23)NC(=O)[C@H](CC(=O)O)NC(=O)[C@H](CCC(N)=O)NC(=O)[C@H](Cc2c[nH]c3ccccc23)NC(=O)[C@H]([C@@H](C)CC)NC1=O
notes: also called Comp No 24
Human C3 [2]
  CP hemolysis IC50: 90 nM
Human C3 [3]
  IC50[nM], inhibition of hemolysis: < 100 nM

B6: Compound 2 (peptide)
peptide: Ac-ICIWQDWGEHRCT-NH2
modifications: disulfide 2-12
SMILES: CC[C@H](C)[C@H](NC(C)=O)C(=O)N[C@H]1CSSC[C@@H](C(=O)N[C@H](C(N)=O)[C@@H](C)O)NC(=O)[C@H](CCCNC(=N)N)NC(=O)[C@H](Cc2c[nH]cn2)NC(=O)[C@H](CCC(=O)O)NC(=O)CNC(=O)[C@H](Cc2c[nH]c3ccccc23)NC(=O)[C@H](CC(=O)O)NC(=O)[C@H](CCC(N)=O)NC(=O)[C@H](Cc2c[nH]c3ccccc23)NC(=O)[C@H]([C@@H](C)CC)NC1=O
Human C3 [1]
  IC50, CP hemolysis: < 100 nM
Human C3 [2]
  CP hemolysis IC50: 94 nM
Human C3 [3]
  IC50[nM], inhibition of hemolysis: < 100 nM

B7: Compound G (peptide)
peptide: Ac-ICVWQDWGEHRCS-NH2
modifications: disulfide 2-12
SMILES: CC[C@H](C)[C@H](NC(C)=O)C(=O)N[C@H]1CSSC[C@@H](C(=O)N[C@@H](CO)C(N)=O)NC(=O)[C@H](CCCNC(=N)N)NC(=O)[C@H](Cc2c[nH]cn2)NC(=O)[C@H](CCC(=O)O)NC(=O)CNC(=O)[C@H](Cc2c[nH]c3ccccc23)NC(=O)[C@H](CC(=O)O)NC(=O)[C@H](CCC(N)=O)NC(=O)[C@H](Cc2c[nH]c3ccccc23)NC(=O)[C@H](C(C)C)NC1=O
Human C3 [2]
  CP hemolysis IC50: 180 nM
Human C3 [5]
  Kd: 160 nM

B8: Compound 21 (peptide)
peptide: Ac-ICIWQDWGEHRCS-NH2
modifications: disulfide 2-12
SMILES: CC[C@H](C)[C@H](NC(C)=O)C(=O)N[C@H]1CSSC[C@@H](C(=O)N[C@@H](CO)C(N)=O)NC(=O)[C@H](CCCNC(=N)N)NC(=O)[C@H](Cc2c[nH]cn2)NC(=O)[C@H](CCC(=O)O)NC(=O)CNC(=O)[C@H](Cc2c[nH]c3ccccc23)NC(=O)[C@H](CC(=O)O)NC(=O)[C@H](CCC(N)=O)NC(=O)[C@H](Cc2c[nH]c3ccccc23)NC(=O)[C@H]([C@@H](C)CC)NC1=O
Human C3 [2]
  CP hemolysis IC50: 77 nM
Human C3 [3]
  IC50[nM], inhibition of hemolysis: < 100 nM

B9: Compound 20 (peptide)
peptide: Ac-ICIWQDWGEHSCT-NH2
modifications: disulfide 2-12
SMILES: CC[C@H](C)[C@H](NC(C)=O)C(=O)N[C@H]1CSSC[C@@H](C(=O)N[C@H](C(N)=O)[C@@H](C)O)NC(=O)[C@H](CO)NC(=O)[C@H](Cc2c[nH]cn2)NC(=O)[C@H](CCC(=O)O)NC(=O)CNC(=O)[C@H](Cc2c[nH]c3ccccc23)NC(=O)[C@H](CC(=O)O)NC(=O)[C@H](CCC(N)=O)NC(=O)[C@H](Cc2c[nH]c3ccccc23)NC(=O)[C@H]([C@@H](C)CC)NC1=O
Human C3 [2]
  CP hemolysis IC50: 59 nM
Human C3 [4]
  Kd: 37 nM
Human C3 [3]
  IC50[nM], inhibition of hemolysis: < 100 nM

B10: Compound 3 (peptide)
peptide: Ac-ESSAICIWQDWGEHRCT-NH2
modifications: disulfide 6-16
SMILES: CC[C@H](C)[C@H](NC(=O)[C@H](C)NC(=O)[C@H](CO)NC(=O)[C@H](CO)NC(=O)[C@H](CCC(=O)O)NC(C)=O)C(=O)N[C@H]1CSSC[C@@H](C(=O)N[C@H](C(N)=O)[C@@H](C)O)NC(=O)[C@H](CCCNC(=N)N)NC(=O)[C@H](Cc2c[nH]cn2)NC(=O)[C@H](CCC(=O)O)NC(=O)CNC(=O)[C@H](Cc2c[nH]c3ccccc23)NC(=O)[C@H](CC(=O)O)NC(=O)[C@H](CCC(N)=O)NC(=O)[C@H](Cc2c[nH]c3ccccc23)NC(=O)[C@H]([C@@H](C)CC)NC1=O
Human C3 [2]
  CP hemolysis IC50: 69 nM
Human C3 [3]
  IC50[nM], inhibition of hemolysis: < 100 nM

B11: Compound 15 (peptide)
peptide: Ac-ICIWQDWGEHRCTGAES-NH2
modifications: disulfide 2-12
SMILES: CC[C@H](C)[C@H](NC(C)=O)C(=O)N[C@H]1CSSC[C@@H](C(=O)N[C@H](C(=O)NCC(=O)N[C@@H](C)C(=O)N[C@@H](CCC(=O)O)C(=O)N[C@@H](CO)C(N)=O)[C@@H](C)O)NC(=O)[C@H](CCCNC(=N)N)NC(=O)[C@H](Cc2c[nH]cn2)NC(=O)[C@H](CCC(=O)O)NC(=O)CNC(=O)[C@H](Cc2c[nH]c3ccccc23)NC(=O)[C@H](CC(=O)O)NC(=O)[C@H](CCC(N)=O)NC(=O)[C@H](Cc2c[nH]c3ccccc23)NC(=O)[C@H]([C@@H](C)CC)NC1=O
Human C3 [2]
  CP hemolysis IC50: 47 nM
Human C3 [3]
  IC50[nM], inhibition of hemolysis: < 100 nM

B12: Compound D (peptide)
peptide: Ac-ICVWQDWGEHRCTGAES-NH2
modifications: disulfide 2-12
SMILES: CC[C@H](C)[C@H](NC(C)=O)C(=O)N[C@H]1CSSC[C@@H](C(=O)N[C@H](C(=O)NCC(=O)N[C@@H](C)C(=O)N[C@@H](CCC(=O)O)C(=O)N[C@@H](CO)C(N)=O)[C@@H](C)O)NC(=O)[C@H](CCCNC(=N)N)NC(=O)[C@H](Cc2c[nH]cn2)NC(=O)[C@H](CCC(=O)O)NC(=O)CNC(=O)[C@H](Cc2c[nH]c3ccccc23)NC(=O)[C@H](CC(=O)O)NC(=O)[C@H](CCC(N)=O)NC(=O)[C@H](Cc2c[nH]c3ccccc23)NC(=O)[C@H](C(C)C)NC1=O
Human C3 [2]
  CP hemolysis IC50: 210 nM
Human C3 [5]
  Kd: 230 nM
